# Measured values published in patent publication US7871610B2, “Antibodies to Tie1 ectodomain” (Dyax Corp., priority 2003, dated 2011).
# B1: E3: human anti-Tie1 antibody from Fab phage library; HC SEQ ID NO:114, LC SEQ ID NO:116 (antibody, V domains shown)
# VH: EVQLLESGGGLVQPGGSLRLSCAASGFTFSMYGMVWVRQAPGKGLEWVSVISPSGGNTGYADSVKGRFTISRDNSKNTLYLQVNSLRAEDTAVYYCARAPRGYSYGYYYWGQGTLVTVSSASTKGPSVFPLAPSSKSTSGG
# VL: DIQMTQSPLSLSASVGDRVTITCRASQGIGHYLAWYQQKPGKVPKLLIYTASTLQSGVPSRFSGSGSGTDFTLTINSLQPEDVATYYCQQFNSYPHTFGQGTRLDIK
# modifications: Synthetically generated peptide
# Biological target: T1, recombinant human Tie1-Fc (Homo sapiens, UniProt P35590)
# T1 construct: selected against the Tie1 extracellular domain fused to human Fc or to a histidine purification tag
# T1 sequence (P35590 22-759 limits assumed): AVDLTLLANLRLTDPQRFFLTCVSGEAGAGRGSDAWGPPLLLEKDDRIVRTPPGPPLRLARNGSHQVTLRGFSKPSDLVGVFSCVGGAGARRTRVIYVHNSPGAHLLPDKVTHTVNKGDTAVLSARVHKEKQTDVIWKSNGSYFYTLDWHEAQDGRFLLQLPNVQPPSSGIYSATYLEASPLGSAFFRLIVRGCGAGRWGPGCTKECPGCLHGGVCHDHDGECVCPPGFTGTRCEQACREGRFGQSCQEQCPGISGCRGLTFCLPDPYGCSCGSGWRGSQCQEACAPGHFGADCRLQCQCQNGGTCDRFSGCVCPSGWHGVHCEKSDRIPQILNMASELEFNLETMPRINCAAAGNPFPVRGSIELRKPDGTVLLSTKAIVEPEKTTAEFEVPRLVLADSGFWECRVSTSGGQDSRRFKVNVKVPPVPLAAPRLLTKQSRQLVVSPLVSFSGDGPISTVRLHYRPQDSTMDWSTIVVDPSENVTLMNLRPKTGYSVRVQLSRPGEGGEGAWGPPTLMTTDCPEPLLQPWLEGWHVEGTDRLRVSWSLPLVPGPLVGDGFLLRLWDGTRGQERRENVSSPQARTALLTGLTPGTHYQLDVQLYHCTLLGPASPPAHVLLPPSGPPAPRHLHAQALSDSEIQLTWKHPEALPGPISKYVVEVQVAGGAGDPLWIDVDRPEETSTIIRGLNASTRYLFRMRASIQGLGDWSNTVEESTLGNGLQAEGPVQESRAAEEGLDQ
# Assay: BIAcore, coated E3 IgGs with recombinant human Tie-1 Fc
# Type: binding
# Details: IgG, human Tie1 Fc
# Description: The germlined E3 IgG1 stock solution 0.63 mg/ml was diluted 1/50 in a buffer of pH4.5 and the parental E3 IgG1 stock solution 0.56 mg/ml (2143-001) was diluted 1/50 in a buffer of pH 4.5. The IgG were directly coated onto a CM5 chip. The surface of the chips was activated with a 7 minute pulse of 0.05M NHS/0.2M EDC and the IgG was flowed over until 780RU germlined E3-IgG and 728 non germlined E3 IgG was coated onto the surface. All flow cells were subsequently deactivated with a 7 minute pulse of 1M ethanolamine hydrochloride pH 8.5. All analysis was performed in HBS buffer. Purified recombinant human Tie-1 Fc was diluted 1/28.7 in HBS to obtain a 400 nM stock solution. Serial dilutions were made to obtain 200 nM, 100 nM, 50 nM and 25 nM Tie-1 Fc stocks. For analysis of the association phase samples were injected at 30 μl/min for 8.3 minutes using kinject program. This was followed by a 40 minutes dissociation phase. Any antigen remaining associated to the surface was stripped from the IgG surface at a flow of 50 μl/min with two injections of 10 mM glycine pH 1.5 for 30 secods. All samples were run and analyzed in duplicate
# Sensorgrams were analyzed using the simultaneous ka/kd fitting program with 1:1 model in the BIAEVALUATION™ software 3.1.
molecule,measurement,value
B1,effect of germlining on binding activity,minimal impact on the binding activity
